US20250264433A1

Columns and labels:
[1] = target: EspB cyclic peptide #49 (positions 193-207) (Enteropathogenic Escherichia coli (EPEC)); assay: ELISA, plate coated with peptide #49, serially diluted mAb, anti-human IgG-HRP
[2] = target: EspB cyclic peptide #50 (positions 197-211) (Enteropathogenic Escherichia coli (EPEC)); assay: ELISA, plate coated with peptide #50, serially diluted mAb, anti-human IgG-HRP

B1: mAb-EspB-B7 (antibody, V domains shown)
VH: EVQLLESGGGLVQPGGSLRLSCAASGFTFSHYAMNWVRQAPGKGLEWVSAINSNGDSTYYPDTVKDRFTISRDNSKNTLYLQMNSLRAEDTAVYYCARDRRAGYFDYWGQGTLVTVSS
VL: DIVLTQPPSASGTPGQRVTISCSGSRDNIGKNYVSWYQQLPGTAPKLLIYRNNQRPSGVPDRFSGSKSGTSASLAISGLRSEDEADYYCSAWDTSLNAYVFGPGTQLTVL
- EC50 (read off the curve) [1]: 0.5 µg/mL
- EC50 (read off the curve) [2]: 0.5 µg/mL

B2: EspB cyclic peptide #49 (positions 193-207) (peptide)
peptide: CTSAQKASQVAEEAADC
modifications: not checked
- IC50 (read off the curve) (mAb-EspB-B7): 0.8 µg/mL
